The target of series [1] is T1, progastrin-releasing peptide (31-98) (ProGRP31-98) (UniProt P07492 54-121).
T1 sequence: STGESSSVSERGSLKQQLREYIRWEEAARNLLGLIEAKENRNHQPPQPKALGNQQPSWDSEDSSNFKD
Briefly: SPR; 2 mM MgCl2; kon 8.64e3 (printed Ms-1), koff 1.321e-3 s-1; SPR (Biacore X100, SA chip); 1x PBS pH 7.5, 0.1% Tween 20, 5 mM MgCl2 (NSE) or 2 mM MgCl2 (ProGRP31-98); temperature not stated. The following applies: protein: commercial; label: 5' biotin-TEG. Background: In SPR one partner is held on a chip, and binding of the other changes the refractive index at the surface.

In series [2] the target is T2, neuron specific enolase (NSE) (UniProt P09104 2-434). As to the kind of experiment: SPR; NSE 125 nM to 2 uM; SPR (Biacore X100, SA chip); 1x PBS pH 7.5, 0.1% Tween 20, 5 mM MgCl2 (NSE) or 2 mM MgCl2 (ProGRP31-98); temperature not stated. The following applies: protein: recombinant; chain copies: 2; label: 5' biotin-TEG.
T2 sequence (P09104 2-434): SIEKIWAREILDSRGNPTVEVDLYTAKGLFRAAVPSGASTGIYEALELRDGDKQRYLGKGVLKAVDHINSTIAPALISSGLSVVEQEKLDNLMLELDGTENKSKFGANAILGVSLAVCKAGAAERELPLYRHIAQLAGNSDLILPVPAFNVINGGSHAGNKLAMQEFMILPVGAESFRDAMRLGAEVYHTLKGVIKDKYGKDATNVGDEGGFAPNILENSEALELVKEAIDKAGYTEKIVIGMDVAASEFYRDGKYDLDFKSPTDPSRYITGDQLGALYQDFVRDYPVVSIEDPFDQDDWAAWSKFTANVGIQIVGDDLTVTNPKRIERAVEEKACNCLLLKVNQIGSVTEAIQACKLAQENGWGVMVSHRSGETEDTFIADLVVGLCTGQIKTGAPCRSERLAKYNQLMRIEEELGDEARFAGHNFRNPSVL
In series [3] the target is T2, neuron specific enolase (NSE). As to the kind of experiment: SPR; 5 mM MgCl2; kon 1.21e4 (printed Ms-1), koff 1.004e-3 s-1; SPR (Biacore X100, SA chip); 1x PBS pH 7.5, 0.1% Tween 20, 5 mM MgCl2 (NSE) or 2 mM MgCl2 (ProGRP31-98); temperature not stated. The following applies: protein: recombinant; chain copies: 2; label: 5' biotin-TEG.

With CATGCGGAGTAGATTCGAGCCCAGATAGTCCCTGGTTATTTCCTTAGG (ssDNA) [ProGRP-48-5BioTEG], in series [1], the dissociation constant Kd amounted to 153 nM. Regarding TCAGGTGCAGTTCTCGACTCGGTCTTGATGTGGGT (ssDNA) [DNA control], the binding result in series [2] is reported as “no binding”. Take TCACACACGGACCTCTCCTACATTAATTGCGCATTTCGTT (ssDNA) [NSE-Apt5-5BioTEG]: the equilibrium dissociation constant (Kd) in series [3] is about 83 nM.

Broadly, the Kd is a measure of binding affinity in units of concentration.

The values are drawn from paper PMC9041927, “Aptamer based surface plasma resonance assay for direct detection of neuron specific enolase and progastrin-releasing peptide (31-98)†”.
